The experiment has as its target ABD-fused VP1 (ABD-VP1) protein vaccine (not stated | Coxsackievirus B3) (UniProt P03313). The experiment is described as follows: ELISA; sandwich ELISA on serum of mice injected subcutaneously with ABD-VP1 or VP1: plates pre-coated with anti-VP1 antibody, detection with anti-albumin antibody and HRP-labeled secondary antibody, absorbance at 450 nm; the complex formed in vivo.

Here are results for 1 substance from paper PMC8492941.

With “mouse serum albumin (MSA) (from UniProt P07724 25-608) (natural protein)”, the OD450 worked out at 0.7 OD450.
